According to patent publication US20150247135A1 (LIGACEPT, published 2015):

Tests used:
[1] = molecular target: T1, E4-Fc (amino acids 1-497 of ErbB4 joined to the IgG2Fc portion) (UniProt Q15303 26-522; P01859 104-326 = IgG part); experiment: trap coated on 96 well plate, varying HRG1β, detection antibody; Std Error Kd 2.92 nM
T1 construct: range 1-497;domain: IgG2Fc; Control trap; The 1-497 range counts on mature ErbB4 without the signal peptide; also called ErbB4-IgGFc
Protocol: (§1) Purified trap molecules were coated on 96 well plates and incubated with either TGFα or HRG1β. Then detection antibodies against TGFα or HRG1β were used to measure the affinity (Kd) and amount of bound ligand (Bmax).
(§2) Traps were coated on 96 well plates and incubated with varying concentrations of either TGFα or HRG1β. Detection antibodies against TGFα or HRG1β were used to measure the affinity (Kd) and amount of bound ligand (Bmax).

[2] = molecular target: T1, E4-Fc (amino acids 1-497 of ErbB4 …); experiment: trap coated on 96 well plate, varying HRG1β, detection antibody; Std Error Kd 3.128 nM
Protocol: as §1, §2

T1 sequence (Q15303 other isoform, or with tags, fused parts or gaps limits assumed): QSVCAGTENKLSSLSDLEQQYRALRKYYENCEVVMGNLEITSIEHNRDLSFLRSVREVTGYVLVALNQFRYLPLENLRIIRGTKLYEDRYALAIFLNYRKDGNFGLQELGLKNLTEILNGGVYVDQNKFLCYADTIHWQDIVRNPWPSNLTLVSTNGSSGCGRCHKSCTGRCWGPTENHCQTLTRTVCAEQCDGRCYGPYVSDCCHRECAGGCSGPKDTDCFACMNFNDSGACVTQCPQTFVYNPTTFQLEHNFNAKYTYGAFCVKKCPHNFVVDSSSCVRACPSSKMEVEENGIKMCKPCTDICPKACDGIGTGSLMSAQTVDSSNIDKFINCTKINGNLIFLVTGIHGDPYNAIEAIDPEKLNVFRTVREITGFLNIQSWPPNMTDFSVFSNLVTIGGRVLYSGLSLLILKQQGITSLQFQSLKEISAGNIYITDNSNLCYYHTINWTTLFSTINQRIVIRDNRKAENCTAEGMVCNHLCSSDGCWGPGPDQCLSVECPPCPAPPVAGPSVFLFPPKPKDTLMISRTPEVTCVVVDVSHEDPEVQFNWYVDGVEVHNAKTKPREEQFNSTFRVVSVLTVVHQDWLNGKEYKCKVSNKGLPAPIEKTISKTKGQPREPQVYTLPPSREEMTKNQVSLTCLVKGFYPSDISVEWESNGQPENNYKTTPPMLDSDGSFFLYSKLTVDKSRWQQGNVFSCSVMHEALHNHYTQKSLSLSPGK

- Kd [1]: 21.2 nM
- Kd [2]: 14.5 nM
B1: HRG1β (ligand, UniProt Q02297-6 177-241, looked up)
chain: SHLVKCAEKEKTFCVNGGECFMVKDLSNPSRYLCKCPNEFTGDRCQNYVMASFYKHLGIEFMEAE
notes: Soluble ligand incubated with the coated traps; also called heregulin
